According to PMC3376909 (Molecular Microbiology, 2012):

T1: MinD-N45A (purified) (E. coli, UniProt P0AEZ3 1-270, N45A)
T1 sequence (looked up): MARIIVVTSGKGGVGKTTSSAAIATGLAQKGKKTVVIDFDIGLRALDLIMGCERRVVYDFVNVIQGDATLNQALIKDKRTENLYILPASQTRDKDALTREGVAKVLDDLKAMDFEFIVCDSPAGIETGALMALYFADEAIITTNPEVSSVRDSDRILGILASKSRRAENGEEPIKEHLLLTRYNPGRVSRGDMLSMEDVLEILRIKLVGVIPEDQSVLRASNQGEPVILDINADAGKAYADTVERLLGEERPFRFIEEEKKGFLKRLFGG

B1: MalE-MinC (natural protein, E. coli, UniProt P18196 1-231, looked up)
chain: MSNTPIELKGSSFTLSVVHLHEAEPKVIHQALEDKIAQAPAFLKHAPVVLNVSALEDPVNWSAMHKAVSATGLRVIGVSGCKDAQLKAEIEKMGLPILTEGKEKAPRPAPTPQAPAQNTTPVTKTRLIDTPVRSGQRIYAPQCDLIVTSHVSAGAELIADGNIHVYGMMRGRALAGASGDRETQIFCTNLMAELVSIAGEYWLSDQIPAEFYGKAARLQLVENALTVQPLN
B2: MinE-his (purified) (natural protein, E. coli, UniProt P0A734 1-88, looked up)
chain: MALLDFFLSRKKNTANIAKERLQIIVAERRRSDAEPHYLPQLRKDILEVICKYVQIDPEMVTVQLEQKDGDISILELNVTLPEAEELK

Biological target: T1, MinD-N45A (purified)
Assay: co-sedimentation

Row | Binder | binding result
1 | B1 | binds
2 | B2 | binds
